For twelve molecules, EC50 results are on record in patent publication US20200399364A1 (PHANES THERAPEUTICS, published 2020).

This experiment has as its target T1, human claudin 18.2 (CLDN18.2) (human).
T1 construct: also called claudin 18 variant 2; claudin-18a2.1
As to the kind of experiment: FACS on HEK293-CLDN18.2 stable pool, FITC-based detection.

T1 sequence (chain, as listed by the source limits assumed): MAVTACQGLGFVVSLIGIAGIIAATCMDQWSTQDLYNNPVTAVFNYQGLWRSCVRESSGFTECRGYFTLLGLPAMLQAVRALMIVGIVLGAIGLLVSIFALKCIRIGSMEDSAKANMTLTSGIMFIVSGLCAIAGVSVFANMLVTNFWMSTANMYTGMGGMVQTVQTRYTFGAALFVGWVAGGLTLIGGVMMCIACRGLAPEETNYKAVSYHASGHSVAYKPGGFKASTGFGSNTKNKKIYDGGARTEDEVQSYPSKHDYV

B1: humanized anti-CLDN18.2 mAb 2-C3-H1L1 (antibody, V domains shown)
VH: QVTLRESGPALVKPTQTLTLTCTASGFTFSSYGMSWVRQPPGKALEWVATISGGGSYTYYNPSLKDRFTISRDISANQLVLKVTNMDPADTATYFCARQSRGNAMDYWGQGTTVTVSS
VL: DIQMTQSPSTLSASVGDRVTITCKSSQSLLNSGNQKNYLTWYQQKPGKAPKLLIYWASTRESGVPSRFSGSGSGTAFTLTISSLQPDDFATYYCQNDYSYPLTFGGGTKVEIK
notes: Humanized VH and VL fused to the constant regions of human IgG1 heavy chain and kappa light chain
In the case of B1, the half-maximal effective concentration (EC50) was determined as 9.8 nM.

B2: humanized anti-CLDN18.2 mAb 6-J11-H1L1 (antibody, V domains shown)
VH: EVQLVESGGGLVQPGGSLRLSCAASGFIFSSFGMHWVRQAPGKGLEWVAYISSGRSTMYYADSVKGRFTISRDNSKNTLYLQMNSLTAEDTAVYYCARGGFYGNSLDYWGQGTLVTVSS
VL: DIQMTQSPSSLSASVGDRVTITCKSSLSLLNSGNQKNYLTWYQQKPGKAPKLLIYWASTRESGVPSRFSGSGSGTDFTLTISSLQPEDFATYSCQNAYSYPLTFGQGTKVEIK
notes: as for B1
B2 had a concentration giving a half-maximal response (EC50) of 11.2 nM.

B3: humanized anti-CLDN18.2 mAb 2-C3-H1L2 (antibody, V domains shown)
VH: QVTLRESGPALVKPTQTLTLTCTASGFTFSSYGMSWVRQPPGKALEWVATISGGGSYTYYNPSLKDRFTISRDISANQLVLKVTNMDPADTATYFCARQSRGNAMDYWGQGTTVTVSS
VL: DIQMTQSPSTLSASVGDRVTITCKSSQSLLNSGNQKNYLTWYQQKPGKAPKLLIYWASTRESGVPSRFSGSGSGTEFTLTISSLQPDDFATYYCQNDYSYPLTFGGGTKVEIK
notes: as for B1
On to B3, for which a half-maximal effect (EC50) was put at 9.1 nM.

B4: humanized anti-CLDN18.2 mAb 6-J11-H2L1 (antibody, V domains shown)
VH: EVQLVESGGGLVQPGGSLRLSCAASGFIFSSFGMHWVRQAPGKGLEWVAYISSGRSTMYYADSVKGRFTISRDNSKNTLYLQMNSLRSEDTAVYYCARGGFYGNSLDYWGQGTLVTVSS
VL: DIQMTQSPSSLSASVGDRVTITCKSSLSLLNSGNQKNYLTWYQQKPGKAPKLLIYWASTRESGVPSRFSGSGSGTDFTLTISSLQPEDFATYSCQNAYSYPLTFGQGTKVEIK
notes: as for B1
B4 had an EC50 of 11.4 nM.

B5: humanized anti-CLDN18.2 mAb 2-C3-H2L2 (antibody, V domains shown)
VH: QVTLRESGPALVKPTQTLTLTCTFSGFTFSSYGMSWIRQPPGKALEWLATISGGGSYTYYLDSLKDRFTISRDISKNQVVLTVTNMDPADTATYFCARQSRGNAMDYWGQGTTVTVSS
VL: DIQMTQSPSTLSASVGDRVTITCKSSQSLLNSGNQKNYLTWYQQKPGKAPKLLIYWASTRESGVPSRFSGSGSGTEFTLTISSLQPDDFATYYCQNDYSYPLTFGGGTKVEIK
notes: as for B1
In the case of B5, a half-maximal response (EC50) required 8 nM.

B6: humanized anti-CLDN18.2 mAb 2-C3-H2L1 (antibody, V domains shown)
VH: QVTLRESGPALVKPTQTLTLTCTFSGFTFSSYGMSWIRQPPGKALEWLATISGGGSYTYYLDSLKDRFTISRDISKNQVVLTVTNMDPADTATYFCARQSRGNAMDYWGQGTTVTVSS
VL: DIQMTQSPSTLSASVGDRVTITCKSSQSLLNSGNQKNYLTWYQQKPGKAPKLLIYWASTRESGVPSRFSGSGSGTAFTLTISSLQPDDFATYYCQNDYSYPLTFGGGTKVEIK
notes: as for B1
Consider B6, for which the EC50 amounted to 8.8 nM.

B7: humanized anti-CLDN18.2 mAb 5-E22-H1L1 (antibody, V domains shown)
VH: QVQLVQSGVEVKKPGASVKVSCKASGYTITDNYMHWVRQAPGQGLEWIGEIYPGSGNTYFNEKFKNRATLTADKSTTTAYMELKSLQFDDTAVYFCARGFPYYAMDYWGQGTTVTVSS
VL: EIVMTQSPATLSLSPGERATLSCHARQNINVWLSWYQQKPGQAPRLLIYKASNLHTGVPARFSGSGSGTDFTLTISSLEPEDFAVYYCQQGQNYPLTFGGGTKVEIK
notes: as for B1
In turn, B7 displayed an EC50 of 59 nM.

B8: humanized anti-CLDN18.2 mAb 5-E22-H1L3 (antibody, V domains shown)
VH: QVQLVQSGVEVKKPGASVKVSCKASGYTITDNYMHWVRQAPGQGLEWIGEIYPGSGNTYFNEKFKNRATLTADKSTTTAYMELKSLQFDDTAVYFCARGFPYYAMDYWGQGTTVTVSS
VL: DIVMTQSPLSLPVTPGEPASISCHARQNINVWLSWYLQKPGQSPQLLIYKASNLHTGVPDRFSGSGSGTDFTLKISRVEAEDVGVYYCQQGQNYPLTFGQGTKVEIK
notes: as for B1
B8 returned an EC50 of 61 nM.

B9: humanized anti-CLDN18.2 mAb 5-E22-H3L1 (antibody, V domains shown)
VH: QVQLVQSGAEVKKPGASVKVSCKASGYTITDNYMHWVRQAPGQGLEWIGEIYPGSGNTYYAEKFKNRATLTADKSISTAYMELSRLRSDDTAVYFCARGFPYYAMDYWGQGTLVTVSS
VL: EIVMTQSPATLSLSPGERATLSCHARQNINVWLSWYQQKPGQAPRLLIYKASNLHTGVPARFSGSGSGTDFTLTISSLEPEDFAVYYCQQGQNYPLTFGGGTKVEIK
notes: as for B1
Consider B9, for which the EC50 came to 12.1 nM.

B10: humanized anti-CLDN18.2 mAb 5-E22-H3L2 (antibody, V domains shown)
VH: QVQLVQSGAEVKKPGASVKVSCKASGYTITDNYMHWVRQAPGQGLEWIGEIYPGSGNTYYAEKFKNRATLTADKSISTAYMELSRLRSDDTAVYFCARGFPYYAMDYWGQGTLVTVSS
VL: EIVLTQSPATLSLSPGERATLSCHARQNINVWLSWYQQKPGQAPRLLIYKASNLHTGIPARFSGSGSGTDFTLTISSLEPEDFAVYYCQQGQNYPLTFGGGTKVEIK
notes: as for B1
In turn, B10 showed a concentration for a half-maximal effect (EC50) of 19.4 nM.

B11: humanized anti-CLDN18.2 mAb 5-E22-H3L3 (antibody, V domains shown)
VH: QVQLVQSGAEVKKPGASVKVSCKASGYTITDNYMHWVRQAPGQGLEWIGEIYPGSGNTYYAEKFKNRATLTADKSISTAYMELSRLRSDDTAVYFCARGFPYYAMDYWGQGTLVTVSS
VL: DIVMTQSPLSLPVTPGEPASISCHARQNINVWLSWYLQKPGQSPQLLIYKASNLHTGVPDRFSGSGSGTDFTLKISRVEAEDVGVYYCQQGQNYPLTFGQGTKVEIK
notes: as for B1
As for B11, it took 14.7 nM to reach a half-maximal effect (EC50).

B12: humanized anti-CLDN18.2 mAb 5-E22-H1L2 (antibody, V domains shown)
VH: QVQLVQSGVEVKKPGASVKVSCKASGYTITDNYMHWVRQAPGQGLEWIGEIYPGSGNTYFNEKFKNRATLTADKSTTTAYMELKSLQFDDTAVYFCARGFPYYAMDYWGQGTTVTVSS
VL: EIVLTQSPATLSLSPGERATLSCHARQNINVWLSWYQQKPGQAPRLLIYKASNLHTGIPARFSGSGSGTDFTLTISSLEPEDFAVYYCQQGQNYPLTFGGGTKVEIK
notes: as for B1
B12 yielded an EC50 of 259 nM.

What is called EC50 is the concentration needed to bring the measured effect to its halfway point.
